Data reported in patent US8540999B2, “Allergenic proteins and peptides from Japanese cedar pollen” (Merck Patent GmbH, priority 1991, dated 2013).

Experiments:
[1] = system: Cry j I reactive T cells; assay: T cell proliferation assay, Cry j I primed T cell lines, modified peptides (Example 11); type: cell-based, human; details: panel of thirty-nine patients, FIG. 21
Protocol: Long term T cell lines were established by stimulation of 2×10^6 PBL/ml in bulk cultures of complete medium (RPMI-1640, 2 mM L-glutamine, 100 U/ml penicillin/streptomycin, 5×10^−5M 2-mercaptoethanol, and 10 mM HEPES supplemented with 5% heat inactivated human AB serum) with 20 μg/ml of partially purified native Cry j I (75% purity containing three bands similar to the three bands in FIG. 2) for 6 days at 37° C. in a humidified 5% CO2 incubator to select for Cry j I reactive T cells. This amount of priming antigen was determined to be optimal for the activation of T cells from most cedar pollen allergic patients. Viable cells were purified by LSM centrifugation and cultured in complete medium supplemented with 5 units recombinant human IL-2/ml and 5 units recombinant human IL4/ml for up to three weeks until the cells no longer responded to lymphokines and were considered “rested”. The ability of the T cells to proliferate to selected Cry j I peptides, partially purified Cry j I, affinity purified Cry j I, or positive (PHA) controls or negative controls (medium only) was then assessed. […]
The maximum response in a titration of each peptide is expressed as the stimulation index (S.I.). […]

[2] = system: allergic patient IgE; assay: Direct ELISA, IgE binding to rCry j I and Cry j I peptides (Example 8); set-up: species or system human; details: PHP (15 patients), FIG. 15
Protocol: The recombinant Cry j I protein (rCry j I), expressed in bacteria and then purified (as described in Example 5), has been examined for IgE reactivity. The first method applied to this examination was direct ELISA where wells were coated with the recombinant Cry j I and IgE binding was assayed on individual patients. FIG. 9 is the graphic representation of this direct ELISA.
To analyze IgE reactivity to selected Cry j I peptides a direct ELISA format was used. ELSIA wells were coated with 25 peptides derived from Cry j I and assayed for IgE binding. FIG. 15a and 15b are graphs of these binding results using PHP (15 patients) as the cedar pollen allergic IgE source. This pool of plasma was formulated for enrichment of IgE that could bind to denatured SPE (as determined by direct ELISA) and therefore increase the chance of reactivity toward the peptides.

[3] = system: Cry j allergic patient plasma IgE; assay: Cry j I peptide screen, direct ELISA for IgE binding (Example 12); set-up: species or system human; details: plasma pools PHP-A and PHP-D, FIGS. 22 and 23
Text: To analyze IgE reactivity to the selected peptides discussed in example 11 and shown in FIG. 20, a direct ELISA format was used. ELISA wells were coated with the selected peptides derived from Cry j I and then assayed for IgE binding. FIGS. 22 and 23 are graphs of these binding results using two different pools of Cry j allergic patient plasma. Patient plasma pool A (denoted PHP-A) (FIG. 22) was formulated by mixing equal volumes of plasma from 22 patients that were all shown to be positive for direct IgE binding to native purified Cry j I by ELISA. The second pool (PHP-D) (FIG. 23) was formulated by the combination of equal plasma volumes from 8 patients that had IgE binding by direct ELISA to both native and denatured purified Cry j I. This pool was generated to increase the chance of detecting reactivity towards peptides. […] There was no detectable IgE binding reactivity to any of the peptides at any of the plasma concentrations used. To control for the presence of peptide coating the wells, mouse polyclonal antisera was generated to the peptides. […] The results of these assays are shown in FIG. 24, and indicate that peptides were coating the wells.

[4] = system: patients' plasma IgE; assay: Direct binding assay of IgE to Cry j I, Cry j II and recombinant Cry j II (Example 18); set-up: species or system human
Protocol: Costar assay plates were coated with Cry j I or Cry j II at 2 μg/mL or recombinant Cry j II preparation at 10 μg/mL (approximately 20% pure) in a volume of 50 μL overnight at 4° C. The coating antigens were removed and the wells were blocked with 0.5% gelatin, PVP (polyvinyl pyrolidine) 1 mg/mL in PBS, 200 μL/well for 2 hours at room temperature. The anti-Cry j I monoclonal antibody, 4B11, was serially diluted in PBS-Tween 20 starting at a 1:1000 dilution. The human plasma were serially diluted in PBS-Tween at a starting dilution of 1:2. For this set 23 plasma samples from patients symptomatic for Japanese cedar pollen allergy chosen for IgE binding analysis. The first antibody incubation proceeded overnight at 4° C. Following three washes with PBS-Tween the second antibodies were added (biotinylated goat anti-mouse Ig or goat anti-human IgE both at 1:2000) and incubated for two hours at room temperature at 100 μL/well. After washing 3 times, […]. This solution was removed and streptavidin-HRPO diluted to 1:10,000, was added at 100 μL/well. The color was allowed to develop for 2-5 minutes. The reaction was stopped by the addition of 100 μL/well of 1M phosphoric acid. Plates were read on a Microplate IL310 Autoreader (Biotek Instruments, Winooski, Vt.) with a 450 nm filter. The absorbance levels of duplicate wells were averaged. A positive binding result, indicated by a plus sign is determined to be a reading of two-fold or greater above background (no first antibody) at the second dilution of plasma ([…]).

[5] = system: IgE antibodies; details: Sakaguchi (1990); cited from earlier work

B1: purified native Cry j I: major allergen of Japanese cedar pollen, biochemically purified in the native form (protein)
chain: DNPIDSCWRGDSNWAQNRMKLADCAVGFGSSTMGGKGGDLYTVTNSDDDPVNPAPGTLRYGATRDRPLWIIFSGNMNIKLKMPMYIAGYKTFDGRGAQVYIGNGGPCVFIKRVSNVIIHGLYLYGCSTSVLGNVLINESFGVEPVHPQDGDALTLRTATNIWIDHNSFSNSSDGLVDVTLTSTGVTISNNLFFNHHKVMLLGHDDAYSDDKSMKVTVAFNQFGPNCGQRMPRARYGLVHVANNNYDPWTIYAIGGSSNPTILSEGNSFTAPNESYKKQVTIRIGCKTSSSCSNWVWQSTQDVFYNGAYFVSSGKYEGGNIYTKKEAFNVENGNATPQLTKNAGVLTCSLSKRC
- T cell line response [1]: All but one of the thirty-nine T cell lines responded
- IgE binding, direct ELISA [2]: only specific IgE detected
- IgE binding, direct ELISA [3]: direct binding
- plasma IgE binding response ([4]; patient #1034): no detectable binding
- plasma IgE binding response ([4]; patient plasma samples, FIGS. 31-33): variable response
- allergic patients with IgE that only reacted with this allergen [5]: 29%
